Measured values reported in the DeepSol protein solubility set.

Assay: soluble on expression in E. coli; label from the status in PepcDB or PDB records
In the case of “MGSDKIHHHHHHMTLLLKENDVINLLDYKQIYGALVNAFLLFENKFAINLERSRISFHGTTLTFQAAGMENYIGYKTFISGNHLTFLYDTSGNLLSIIESDRLSQARTAVLSILATDYVYGDFSSLGVIGLGKYGLAIVEIANQLKKGIKINVFTPSQQRMEKALSILRGEGIDVSPKDSIKRVCEESEVVTTITKAKDPFLKLEYVNNKRIHINAMGSNIPEKIEIFPEVIKASNLIVVEELEHEFKRIRRVSHRKRMGMLDMSKITLLSWILSRKINVQKEGITIFKSVGIGLEDLAVGKLIYEKALSKGLGTEIEVKGVWYRESEKK”, the “soluble on expression in E. coli” value is reported as “not soluble”.
With “EAPFTLKVNTLPLNFDKAEHHRKFQIHINVSYIGERPNSNMVIVDVKMVSGFIPVKPSVKKLQDQSNIQRTEVNTNHVLIYIEKLTNQTMGFSFAVEQDIPVKNLKPAPVKVYDYYETDEFAIEEYSAPFSSDS” the “soluble on expression in E. coli” value was “soluble”.
For “SLNVPDMILYNGKITTLDPSQPEVSAIAITDGLITAVGGYELLNSATEKTKKIDLKRKRAIPGLNDSHIHVIRGGLHYNMELRWEGVPSIAIALEMLKEQARRTPAPQWVRVVGGWSEFQFKERRMPTLEEINAVSEDTPVFVLHLYDRALVNRAGLRALGYTKDTPDPPGCLIERDKRGNPTGLLIANPNASILYSSLGKAPILNFDDQINSTRHFMRELNRLGITSAIDAGGGFQNYPDDYRVVEHLAEKEQLTLRIAYNLFTQNPNHEYEDFASWAKIVSPGQGNDKYKMNGAGEMLVFSAADFEKFQMPRPELATMMEADLKKVISLLVENRWPFRLHATYDESITRFLNVFEEVNKEIPFNGLRWWFDHAETISDRSMERVKALNGGIAIQDRMAFQGEYFVDLYGKEAAKRTPPIYRMLDLGIPVGAGSDATRVSSYNPWVALYWMVAGKTIGGLSIYDKKNKLDRKVALELYSKGSAWFSGDEGKKGTLAVGQFADIAVLSADYFTVPEEEIKDLESLLTIMGGQVVYGNDEFKNLSPELPPASPDWSPTGVYGYGGANLAHTILSHNSHDNKLHSCSNPLHQHTHTVIGKDGTKWGIGCTCFAF”, the “soluble on expression in E. coli” value was “not soluble”.
For “MKSIYYLSADDLFQMNTFLIQTYSPAEQIGIKDRNALEMASNQPAQFVFDVDLYPTIEEKAAILMINIATKHCFYNANKRTAVMATDLFLQLNGYDFQLDTQEGVDLLVFIATYRSDFDQLKNDVSKVIRAKLNHTSSHLEHHHHHH”, the “soluble on expression in E. coli” value was “soluble”.
With “MGSDKIHHHHHHMAVTLYSSIATPHNKNTHHYFTRRTFLPDQQNSLWKIEAGFVRTFTYLENGTTVALGLWGPGDILGRALSKLEPYQMECLTKVEATIVPIEEWKNPTDTLLAHIQQAEELMVIRSYKKVDTMLIKLLAWLSKKFGSEVDKGRLIDMRLTHEDLAEMLGSTRVTITRILGQFEEEGLINRLSLHRIVLKEEDIWYYEI” the “soluble on expression in E. coli” value was “not soluble”.
For “MDPQGYFLWYQVEMPEDRVNDLARELRIRDNVRRVMVVASTTPGRYEVNIVLNPNLDQSQLALEKEIIQRALENYGARVEKVEELGLRRLAYPIAK”, the “soluble on expression in E. coli” value was “soluble”.
For “MSAVNRAAVEAVLRQYTDPYLNQDPVSAGCVRDIEVQGDRVTVRMELGYAAGLFKSGWAQMLQLAIEGLDGVSSAKVEISSVIAAHKAQAQIPGLANVKNVVAVASGKGGVGKSTTAANLALALAREGAKVGILDADIYGPSQGIMFGIAEGTRPKIKDQKWFVPIESHGVEVMSMAFLTDDNTPMVWRGPMVSGALLQLVTQTDWGNLDYLVIDMPPGTGDIQLTLAQKVPVAGAVIVTTPQDLALLDARKGVEMFRKVNIPVLGVVENMAVHICSNCGHAEHLFGEGGGEKLASQYDVELLASLPLSMLIREQADGGKPTVIAEPESQIAMVYQELARHVGARIVLQEAAAPAMPNITISDDLEHHHHHH”, the “soluble on expression in E. coli” value was “not soluble”.
In the case of “MSLARLQFQLKVDGLEDESLVVRGFEGQESLSDSVWRCEPCYGFRYQVDLASALSNLTAEQFVDQTAHLTILRDGQVVQQINGIVRQLSKGDTGHRHTFYSLTLVPALERLSLRSNSRIFQQQSVPEIISILLQEMGIEDYAFALKRECAQREFCVQYRETDLQFLHRIAAEEGLVYSHLHEAQKHTLLFTDSSDSQPKLAKPVPYNALAGGEINLPYVVDLQFKTTAQVSHTELKDYSFKKPAYGFTQRTQGKDIAYQQPNYEHFDAPGRYKDDANGKAFSQIRLEYLRRDALLADAKSDEPLLLAGVRFDLQDHLDHAMNRDWLVVQANHQGTQPQALQEEGGSGATTYSNQLKLIPAHITWRARPCAKPQVDGPMIATVVGPQGEEIYCDNFGRVKVHFPWDRYSSSNEKSSCWVRVAQEWAGSQYGSMAIPRVGHEVIVSFLNGDPDQPIITGRTYHATNTAPYALPDHKTKTVLRTETHQGQGYNELSFEDQAGSEQILLHAQKDWDALIEHDHTEVIRHDQHLTVDNDRFTRIQRNQHLTVEGEVRSKIALDSSHEVGASLQHKVGQRIAVEAGKEISLKSGAKIVVEAGAELTLKAGGSFVKVDAGGVHLVGPAINLNAGGSAGSGSAYGGQLAAAPRMLAQAKPVAELVQPDIAASMQSGAARVIDVASLPTMMPSSANNTANDEPVAEEKTPERILKSDLLKPSDELEKLAKRQASAYRQGNHSDEVKLLQEALIKLGFDLGKAGADGDFGSKTKTAIEQFQKSYQPSHQTHPSYSIGAVDGIVGKGTLLALDEALMDGWVYENNIYQIWPLGKTSEKYESAGRGPGVISTGNGDYGGASYGCYQMSSNLGVVQKYIQSSKFKEFFSGLNPATKEFNVVWQDIASRYPQEFREEQHQFIKRTHYDIQIGHLRGKGLLFEHNRAAVHDLIWSTSVQFGGRTNLIFNALNGQNMESMTDKDIIILVQDYKLVNTERLFKSSPSWWSDLKKRAVSEKKALLELEIDGLEVDIKEGGSHHHHHH”, the “soluble on expression in E. coli” value is reported as “not soluble”.
For “MRRCPLCHSTQTHLLLQDKKRCFYICQTCWLTFADANSHLPPAAEKQRYGRSRIASKQRHLSQFILPLLTQIQQQQNGSLTGLNFGRVLDQTSLETIESAGHTFKQYDPFFAPDHETLKQEYDFICCYRVFEHFQYPIKEWSLLTRLLKPGGWLAISTPLLIDLEGFAKWHYKNNLTHVSFYQRQTFEYLASNSDFELLFAAKDLVLMQKTSLEHHHHHH”, the “soluble on expression in E. coli” value was “soluble”.
For “MGSDKIHHHHHHMRIKAVSSLVGGEVLAEPILTEKNDILIPNGTRIKPDYVPLIESLGIESVMVEDPYENYESPNSIVDPAIFDKYVKKVRRLMESHIYHDGKSLKEFEIIANDIVHDINDMPYDVIVDIKERNSDLYEHTVMVTLLSVLVARKLKLDEKRKYNIAVGCLLHDIGLRFIVTRYKNRDFSNANPAELFEYKKHTILGYSALDEENWIAPISMKMVLSHHENMAGTGFPMKQKNKELECRIIQACDAFDSLISGMECKRICVQEAINQIKENDGGRFDNKIIKCLLSSIARYPVGTTVKTNAEEEGVVVSQTVDPENPIIMIFGNENNGKLMLHNRLNLMLDKNISILQVI”, the “soluble on expression in E. coli” value was “not soluble”.
With “MSLNILDVMKIPAFENANLIAGKAGGEREVQHVNMMDAPDIVDFLHKNELLVTTAYHLKDHPHQLSELIRQMAKRGCAGLGIKTKRYLEDIPKEIIELADSYAFPIIELPEHIRLGDIVNATLSHILDMRSNEGHHHHHH” the “soluble on expression in E. coli” value was “soluble”.
In the case of “NVHREWAANEKTAMESALGMSYAGKRALVCMKHVGMNVAADCFMNAAITGANGGMVIVAADDPSMHSSQNEQDSRVYGQFAMIPVMEPSNQQEAYDMTRLAFDLSERLGTPVMMRITTRLAHSRAGVVQTEPIGENELHLPEDKRQYVLLPGIAKKRYRILLDKQTDFVRESENSPYTEYVDAADKSKGIVACGIAYNYLMEAFKAQVPYPVLKVTQYPIPHKQMERLLNECGDIVVMEEGYPVVEQLLKGFPGLERIKGRLDGTLPRDGELNPDHVAKAFNIPVVEGEPIPDLVAARPPALCKGCSHRDVYDALNEVLTEYPNGRVFSDIGCYTLGALPPYEAINSCVDMGASITMAKGAADAGLFPAVSVIGDSTFTHSGITGLLDAINENSNITVIISDNESISMTGGQH”, the “soluble on expression in E. coli” value is reported as “not soluble”.
In the case of “MGSDKIHHHHHHMSGSKIKIALFNDTDFRVNIGCRLTSQGLKQQILDAFPAAEITSIGFNFAAFRKEFPKSTSAGGYELSDIETRLSTAYGEGAVDHIRAADFVILQPEGSLDHRTTAEGLATFFTPILTARKLGKPFAVLNGTIPIYEGERSDYLKGLFRELGHVAARDEISAEYYGIEFLADAAFLRISPAPVADRDGCLITTGARNNAEEDVEILKAALKICEAWKLRPVVLTHAVERFSPYEAEIIGRGGIFAETASIEHAAETISKCRLHIGGRYHMAIFSLLCNVPSLLFDVKTHKNQWLERYSPLITLVHPHTDLDAAAAAVLSGGVSQGHPGSTAAEKYVHFLKRAMAEQPL”, the “soluble on expression in E. coli” value is reported as “not soluble”.
For “FTNPGQIVGRIDRDSGMTSTAPAMPDGDWQAYGRTEFGDRYSPLKQITPANVGQLEEAWRIRTGDLPTADDPLELTNENTPLKVNGMLYACTAHSKVLALDPDTGAEIWRFDPQIQSPVGFKGFAHMTCRGVSYYDEEQYARSDVGAPPAALSEAGKAVAASCPRRLFLPTADARLIAINADNGKVCEDFGVKGAVDLTAGIGPFTPGGYYSTSPAAVTRNLVIIGGHVTDNESTNEPSGVIRAFDVHDGKLVWNWDSGNPDETEPLAPGKFYTRNSPNMWSLASVDEKLGQVYLPLGNQMPDQWGGNRTPGAEKFSAGLVALDLNTGKLRWNYQFTHHDLWDMDVGSQPTLLDLKTADGVKPALIAPTKQGSLYVLDRRDGTPIVPIREVPAPQGAVEGDHTAPTQARSDLNLLRPPLTERDMWGSSPFDQMLCRIQFRSLRYEGQYTPPSEQGSLIYPGNVGVFNWGGVSVDPVRQILFTSPNYMAFVSQMVPRDKVPSGSKREGETSGVQPNTGAPYAVIMHPFMSPIGLPCQAPSWGDVAGIDLTTAKVVWQHKNGTSRDNTPVPIGLTVGVPSMGGSITTAGGVAFLSGTLDQYLRAYDVKDGKQLWQARLPAGGQATPMSYTGKDGRQYVLIVAGGHGSFGTRMGDYIIAYALPR”, the “soluble on expression in E. coli” value was “not soluble”.
For “MSLSRAAIVDQLKEIVGADRVITDETVLKKNSIDRFRKFPDIHGIYTLPIPAAVVKLGSTEQVSRVLNFMNAHKINGVPRTGASATEGGLETVVENSVVLDGSAMNQIINIDIENMQATAQCGVPLEVLENALREKGYTTGHSPQSKPLAQMGGLVATRSIGQFSTLYGAIEDMVVGLEAVLADGTVTRIKNVPRRAAGPDIRHIIIATKVHCAISLK”, the “soluble on expression in E. coli” value was “soluble”.
With “MSLIAKVVVDVAAKQTDRIFEYHIPVELEKDIKVGSRVVVPFGPRKIQGFVVGLSEDSEFKGQLKDLLVVVDEMPPLTPELVTLSADLAENIYSYRIKILQAMLPWVMRANYRKLLVPANAQAEKMQFFQGDPIDLNKITDLKDIKKIRKLLRDGDAKIEYVVENKAKKKKENQYELVLESEEYTKIYNTLRQNAVKQKQLLMDIIENEASYPKNQKDFEKKLGLTASVLNTAVKRGWLKRKEVEVYRDPLSGFKDNKKSAPVKLNDEQQFALNQITAAIDKRKAETFLLEGITGSGKTEVYLHAISKALEQGRNALMLVPEISLTPQMVRQVKSRFGQAVAVLHSALSEGEKYDEWRRIRRGETRVVVGARSAVFAPLDNIGLIVIDEEHESSYKQETDPRYNARDVAIWRSKYHHCPLVLGSATPSLGSRARAQKNVYKLLRLTKRANNKKLPKVNLIDLKHVQFAGGQFDLSVNLVDAIKKRLDNKEQVILMLNRRGFANFMLCRECGFVLKCPNCDVSLNLHKDTNSMQCHYCGHTERVPSRCPNCQSSKIRFLGTGTQKVQEELEELLPGARILRMDVDTTRKKGSYKRILDSFGNHEADILLGTQMIAKGLDFPNVTLVGVINADTGLWLSDYNASEKTFELLTQVAGRAGRANKEGEVLIQTYNPEHYAIQLAQTQNYERFYGYEMNVRHAGNYPPYFFTVLISIAAKKEQNAAREAFRIKRYLSQHLHEEMIILGPTPSAISRVKNQYYYQILVKYKKEPNIKELLHHIQDSAQEAKKYGLNVFIDNEPEKIMEGHHHHHH” the “soluble on expression in E. coli” value was “soluble”.
